B1: Rab-3A-interacting protein (Homo sapiens), Q96QF0-2 (parent)
chain: MANDPLEGFHEVNLASPTSPDLLGVYESGTQEQTTSPSVIYRPHPSALSSVPIQANALDVSELPTQPVYSSPRRLNCAEISSISFHVTDPAPCSTSGVTAGLTKLTTRKDNYNAEREFLQGATITEACDGSDDIFGLSTDSLSRLRSPSVLEVREKGYERLKEELAKAQRELKLKDEECERLSKVRDQLGQELEELTASLFEEAHKMVREANIKQATAEKQLKEAQGKIDVLQAEVAALKTLVLSSSPTSPTQEPLPGGKTPFKKGHTRNKSTSSAMSGSHQDLSVIQPIVKDCKEADLSLYNEFRLWKDEPTMDRTCPFLDKIYQEDIFPCLTFSKSELASAVLEAVENNTLSIEPVGLQPIRFVKASAVECGGPKKCALTGQSKSCKHRIKLGDSSNYYYISPFCRYRITSVCNFFTYIRYIQQGLVKQQDVDQMFWEVMQLRKEMSLAKLGYFKEEL
B2: Ras-related protein Rab-11A (Homo sapiens), P62491 (parent)
chain: MGTRDDEYDYLFKVVLIGDSGVGKSNLLSRFTRNEFNLESKSTIGVEFATRSIQVDGKTIKAQIWDTAGQERYRAITSAYYRGAVGALLVYDIAKHLTYENVERWLKELRDHADSNIVIMLVGNKSDLRHLRAVPTDEARAFAEKNGLSFIETSALDSTNVEAAFQTILTEIYRIVSQKQMSDRRENDMSPSNNVVPIHVPPTTENKPKVQCCQNI
partner: B1 chain

Variants of: B1
Details: with rb11a_human RAB11A

| effect of a mutation on the interaction | Variant |
| --- | --- |
| decreasing interaction strength | MANDPLEGFHEVNLASPTSPDLLGVYESGTQEQTTSPSVIYRPHPSALSSVPIQANALDVSELPTQPVYSSPRRLNCAEISSISFHVTDPAPCSTSGVTAGLTKLTTRKDNYNAEREFLQGATITEACDGSDDIFGLSTDSLSRLRSPSVLEVREKGYERLKEELAKAQRELKLKDEECERLSKVRDQLGQELEELTASLFEEAHKMVREANIKQATAEKQLKEAQGKIDVLQAEVAALKTLVLSSSPTSPTQEPLPGGKTPFKKGHTRNKSTSSAMSGSHQDLSVIQPIVKDCKEADLSLYNEFRLWKDEPTMDRTCPFLDKIYQEDIFPCLTFSKSELASAVLEAVENNTLSIEPVGLQPIRFVKASAVECGGPKKCALTGQSKSCKHRIKLGDSSNYYYISPFCRYRITSVCNFFAYIRAIQQGAVKQQDVDQMFWEVMQLRKEMSLAKLGYFKEEL [T419A;Y423A;L428A] |

Variants of: B2
Details: with RAB3IP

| effect of a mutation on the interaction | Variant |
| --- | --- |
| disrupting interaction strength | MGTRDDEYDYLFKVVLIGDSGVGKNNLLSRFTRNEFNLESKSTIGVEFATRSIQVDGKTIKAQIWDTAGQERYRAITSAYYRGAVGALLVYDIAKHLTYENVERWLKELRDHADSNIVIMLVGNKSDLRHLRAVPTDEARAFAEKNGLSFIETSALDSTNVEAAFQTILTEIYRIVSQKQMSDRRENDMSPSNNVVPIHVPPTTENKPKVQCCQNI [S25N] |

Reference: IntAct's records for PubMed 26258637
